What was measured:
[1] = biological target: human insulin receptor (pAkt assay, CHO cells overexpressing human IR) (human) (UniProt P06213); experiment: cell-based or functional assay
[2] = biological target: minipig insulin receptor (minipig); experiment: cell-based or functional assay

An Insulin Receptor pAK Assay EC50 [1] of 0.51 nM and an Insulin Receptor pAK Assay EC50 [2] of 0.5 nM were found for Insulin levemir (ligand) in this work.
